In patent publication US20200276237A1 (MIE UNIVERSITY, published 2020):

How the values were obtained:
[1] = target: T1, HLA-A2-MAGE-A4 p230 monomer (human); experiment: SPR, BiacoreX100, HLA-A2-MAGE-A4 p230 on sensor chip CAP, purified scFv 12.5-200 nM, single cycle
T1 construct: Biotinylated soluble monomer, captured on neutravidin plates (ELISA) or on the Biacore sensor chip CAP; also called HLA-A2-MAGE-A4 monomer; MAGE-A4-derived peptide/HLA-A2 complex
Description: Determination of KD value by Biacore was determined by measuring the dynamic changes in detection sensitivity (resonance, reflecting the change in mass on the chip) over time. The dissociation rate constant (Kd) and the binding rate constant (Ka) were determined by dynamic change curve, the binding constant was determined from the ratio of the two constants.

[2] = target: T2, HLA-A2/MAGE-A8 risk peptide on T2 cells (human); experiment: FACS on T2 cells pulsed with risk peptide
T2 construct: whole, on cells

[3] = target: T3, HLA-A2/MAGE-A10 risk peptide on T2 cells (human); experiment: FACS on T2 cells pulsed with risk peptide
T3 construct: whole, on cells

[4] = target: T4, HLA-A2/RBBP5 risk peptide on T2 cells (human); experiment: FACS on T2 cells pulsed with risk peptide
T4 construct: whole, on cells; Theoretical MHC IC50 is high (5880.0 nM)

[5] = target: T5, HLA-A2/MAGE-C2 risk peptide on T2 cells (human); experiment: FACS on T2 cells pulsed with risk peptide
T5 construct: whole, on cells

[6] = target: T6, HLA-A2/MAGE-B10 risk peptide on T2 cells (human); experiment: FACS on T2 cells pulsed with risk peptide
T6 construct: whole, on cells

[7] = target: T7, HLA-A2/MAGE-B2 risk peptide on T2 cells (human); experiment: FACS on T2 cells pulsed with risk peptide
T7 construct: whole, on cells

[8] = target: T8, HLA-A2/MAGE-A11 risk peptide on T2 cells (human); experiment: FACS on T2 cells pulsed with risk peptide
T8 construct: whole, on cells

B1: MAGE #17 scFv-FLAG/His (scFv)
scFv: QVQLVQSGAEVKKPGSSVKVSCKASGGTFSSYAISWVRQAPGQGLEWMGGIIPIFGTANYAQKFQGRVTITADKSTSTAYMELSSLRSEDTAVYYCARSPRRAYHDAFDIWGQGTMVTVSSGGGGSGGGGSGGGGSSYELTQPPSMSVAPGKTASITCGGDHIGSKSVHWYQQKPGQAPVLVVYDDSDRPSGIPERFSGSNSGNTATLTISGTQAMDEADYYCLAWDSSTAIFGGGTKLTVL
notes: Purified scFv-FLAG/His form, used for Biacore and for FACS on T2 cells (detection with anti-FLAG); also called clone #17; anti-MAGE #17; not shown: FLAG tag and His tag from the His/FLAG expression vector
Kd [1]: 22 nM | binding result [2]: no binding | binding result [3]: no binding | binding result [4]: no binding | binding result [5]: no binding | binding result [6]: no binding | binding result [7]: no binding | binding result [8]: no binding
